Earlier results as cited in article PMC10349181.

Target: Amyloid beta (Homo sapiens) (UniProt P05067)
Sequence (P05067 672-711): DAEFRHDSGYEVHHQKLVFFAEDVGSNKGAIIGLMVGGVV

Chain of VEGF-A (P15692 whole entry): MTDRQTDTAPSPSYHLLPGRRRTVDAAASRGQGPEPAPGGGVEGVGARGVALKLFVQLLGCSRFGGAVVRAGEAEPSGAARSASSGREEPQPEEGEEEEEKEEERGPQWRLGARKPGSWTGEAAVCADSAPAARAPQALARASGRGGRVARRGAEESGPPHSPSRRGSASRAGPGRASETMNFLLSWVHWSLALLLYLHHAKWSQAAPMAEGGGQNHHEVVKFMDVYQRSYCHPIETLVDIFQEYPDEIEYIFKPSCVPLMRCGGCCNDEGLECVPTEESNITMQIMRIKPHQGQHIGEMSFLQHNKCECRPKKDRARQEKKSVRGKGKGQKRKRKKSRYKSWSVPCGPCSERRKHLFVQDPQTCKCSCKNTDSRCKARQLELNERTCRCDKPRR

- Kd: 0.05 nM
Substance: VEGF-A (from UniProt P15692)
